From publication PMC12730240 (Biosensors, 2025)

Target: T1, Shiga toxin 2 (E. coli (Shiga toxin-producing, STEC))
T1 construct: source: similarly expressed and purified as previously described [29]; copies: + 5
Experiment: pull-down
Details: both partners purified

B1: nanobody G1 (NG1), biotinylated (VHH)
VHH: QVQLVESGGGLVQPGESLRLSCVASASTFSTSLMGWVRQAPGKGLESVAEVRTTGGTFYAKSVAGRFTISRDNAKNTLYLQMNSLKAEDTGVYYCTAGAGPIATRYRGQGTQVTVSS
notes: also called B2; source: E. coli SHuffle T7, purified (Ni-NTA IMAC)
B1: binds.
